The record followed here is PMC7319049 (Nature, 2020).

The labels stand for the following.
B3: Swi3 (natural protein)
chain: MENTLGEGSTVNASVDVDQHGNDNNSDSNANAAVAGVANTDTAGEESQQQDESLKDEATVPNTRDAESEAITVTAKQQPTMQANKLDSQETPSTEESRAQNVFGQDNEDSDNLFGETESSVSNNEANTPSIPTNPVDNENNKPAIKEDSTIQDSNGDVKNMEDVKIQKEEEPENNTVIEGVKEESQPDENTKEMDEVEEDDEDDDQPMISPDNSIFGDTKSESKQLGNTSSVANTPSEIPDAHKAEQEDIIEKTESVDKKVDSGEERNEQEREIMNDHSKSANPKKTTITRVEPETFEIPQAHEIVIPSYSKWFNLEKIHSIEVQSLPEFFTNRIPSKTPEVYMRYRNFMVNSYRLNPNEYFSVTTARRNVSGDAAALFRLHKFLTKWGLINYQVDSKLLPKNIEPPLTSQYSTRHDAPRGLFPFESYKPSVQLPDMAKLKKMMNTSDSESTLYKYLKESKRKYDEITHPPSTTDDENGDKNDNGGKMNNEVSTSTSMTGDANLLEEGETSRPLKKVKILEQIDENWSKEDLQKLLKGIQEFGADWYKVAKNVGNKSPEQCILRFLQLPIEDKFLYGDGNGKGDNDNGLGPLKYAPHLPFSKSENPVLSTIAFLVGLVNPKTVQSMTQRAIQSAESIKSQKEEISDQKPIEHIKEGSEIAISSLGYRSHIFATNEERQMNFLTNELIRLQMEKLDAKLNHLKKLEKFMELERKTLERQQENLLIQRLNFNQNSSKIVNVLSKCLNLISDSNINNSSVAEKEEIRSQIDHFKSMLSKPETLSIGKNPFNKPNIETGENHNGQSISNENDVKPISIEAPQFYRYWSA

What all share (assay): cryo-EM structure
The data set “Swi3” concerns the target B3.
Another data set deals with Snf5 (S. cerevisiae, UniProt P18480 1-905).
Chain of Snf5 (P18480 whole entry): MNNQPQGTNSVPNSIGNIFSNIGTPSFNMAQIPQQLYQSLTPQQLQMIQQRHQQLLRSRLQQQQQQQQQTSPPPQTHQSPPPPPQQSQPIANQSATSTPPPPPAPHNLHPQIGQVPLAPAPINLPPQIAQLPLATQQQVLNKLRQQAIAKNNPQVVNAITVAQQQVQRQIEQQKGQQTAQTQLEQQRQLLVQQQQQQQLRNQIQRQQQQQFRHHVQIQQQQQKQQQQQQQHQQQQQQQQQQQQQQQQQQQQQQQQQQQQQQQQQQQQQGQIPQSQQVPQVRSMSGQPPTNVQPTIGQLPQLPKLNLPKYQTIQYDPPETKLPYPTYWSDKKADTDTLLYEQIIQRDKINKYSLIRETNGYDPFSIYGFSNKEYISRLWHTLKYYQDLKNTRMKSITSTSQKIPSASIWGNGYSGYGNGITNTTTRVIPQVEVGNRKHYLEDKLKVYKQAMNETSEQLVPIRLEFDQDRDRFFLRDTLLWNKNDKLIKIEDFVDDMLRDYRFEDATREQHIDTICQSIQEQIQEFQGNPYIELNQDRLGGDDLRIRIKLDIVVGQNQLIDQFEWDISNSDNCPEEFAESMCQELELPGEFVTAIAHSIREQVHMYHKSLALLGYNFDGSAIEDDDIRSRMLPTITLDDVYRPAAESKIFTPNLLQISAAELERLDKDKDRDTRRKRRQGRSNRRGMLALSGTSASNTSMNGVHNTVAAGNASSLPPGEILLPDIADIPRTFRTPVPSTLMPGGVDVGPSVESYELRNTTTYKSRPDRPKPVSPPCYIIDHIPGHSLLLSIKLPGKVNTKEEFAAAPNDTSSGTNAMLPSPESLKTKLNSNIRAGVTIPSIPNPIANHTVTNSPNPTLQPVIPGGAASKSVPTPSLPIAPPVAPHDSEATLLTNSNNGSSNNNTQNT
The target of another data set is T1, Swi1 (S. cerevisiae, UniProt P09547 1-1314).
T1 sequence: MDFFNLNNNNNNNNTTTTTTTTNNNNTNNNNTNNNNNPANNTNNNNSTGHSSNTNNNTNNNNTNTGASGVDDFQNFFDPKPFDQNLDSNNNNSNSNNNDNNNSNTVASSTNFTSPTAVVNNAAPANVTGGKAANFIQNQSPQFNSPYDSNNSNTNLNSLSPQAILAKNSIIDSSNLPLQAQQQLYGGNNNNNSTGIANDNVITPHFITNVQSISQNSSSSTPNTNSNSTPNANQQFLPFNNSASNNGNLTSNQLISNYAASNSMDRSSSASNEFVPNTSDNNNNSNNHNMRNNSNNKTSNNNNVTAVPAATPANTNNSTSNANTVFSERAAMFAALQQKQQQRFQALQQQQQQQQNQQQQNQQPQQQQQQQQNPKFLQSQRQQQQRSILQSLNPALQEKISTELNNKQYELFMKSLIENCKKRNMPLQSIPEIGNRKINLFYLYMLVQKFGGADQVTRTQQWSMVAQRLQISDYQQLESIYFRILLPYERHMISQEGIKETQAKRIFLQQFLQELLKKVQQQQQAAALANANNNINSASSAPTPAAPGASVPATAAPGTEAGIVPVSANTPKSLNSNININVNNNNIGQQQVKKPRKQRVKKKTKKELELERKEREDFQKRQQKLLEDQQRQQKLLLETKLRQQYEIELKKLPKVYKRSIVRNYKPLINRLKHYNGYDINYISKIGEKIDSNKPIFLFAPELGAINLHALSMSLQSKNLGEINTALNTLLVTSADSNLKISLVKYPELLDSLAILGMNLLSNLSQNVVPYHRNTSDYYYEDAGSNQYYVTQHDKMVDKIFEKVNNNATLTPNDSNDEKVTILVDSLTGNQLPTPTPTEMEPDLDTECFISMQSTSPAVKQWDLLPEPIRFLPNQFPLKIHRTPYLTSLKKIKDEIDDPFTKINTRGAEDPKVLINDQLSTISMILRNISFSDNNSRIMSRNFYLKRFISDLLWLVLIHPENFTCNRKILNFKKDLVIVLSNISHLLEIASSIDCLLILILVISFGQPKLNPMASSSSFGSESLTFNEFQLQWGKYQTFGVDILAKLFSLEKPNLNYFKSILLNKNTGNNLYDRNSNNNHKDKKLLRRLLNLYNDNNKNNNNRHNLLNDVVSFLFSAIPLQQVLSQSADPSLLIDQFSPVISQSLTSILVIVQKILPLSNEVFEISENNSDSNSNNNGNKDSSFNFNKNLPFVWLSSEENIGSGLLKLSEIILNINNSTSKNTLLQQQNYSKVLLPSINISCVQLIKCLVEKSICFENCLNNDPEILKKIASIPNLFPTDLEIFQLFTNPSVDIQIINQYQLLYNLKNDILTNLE

In the next data set the target is Snf2 (S. cerevisiae, UniProt P22082 1-1703).
Chain of Snf2 (P22082 whole entry): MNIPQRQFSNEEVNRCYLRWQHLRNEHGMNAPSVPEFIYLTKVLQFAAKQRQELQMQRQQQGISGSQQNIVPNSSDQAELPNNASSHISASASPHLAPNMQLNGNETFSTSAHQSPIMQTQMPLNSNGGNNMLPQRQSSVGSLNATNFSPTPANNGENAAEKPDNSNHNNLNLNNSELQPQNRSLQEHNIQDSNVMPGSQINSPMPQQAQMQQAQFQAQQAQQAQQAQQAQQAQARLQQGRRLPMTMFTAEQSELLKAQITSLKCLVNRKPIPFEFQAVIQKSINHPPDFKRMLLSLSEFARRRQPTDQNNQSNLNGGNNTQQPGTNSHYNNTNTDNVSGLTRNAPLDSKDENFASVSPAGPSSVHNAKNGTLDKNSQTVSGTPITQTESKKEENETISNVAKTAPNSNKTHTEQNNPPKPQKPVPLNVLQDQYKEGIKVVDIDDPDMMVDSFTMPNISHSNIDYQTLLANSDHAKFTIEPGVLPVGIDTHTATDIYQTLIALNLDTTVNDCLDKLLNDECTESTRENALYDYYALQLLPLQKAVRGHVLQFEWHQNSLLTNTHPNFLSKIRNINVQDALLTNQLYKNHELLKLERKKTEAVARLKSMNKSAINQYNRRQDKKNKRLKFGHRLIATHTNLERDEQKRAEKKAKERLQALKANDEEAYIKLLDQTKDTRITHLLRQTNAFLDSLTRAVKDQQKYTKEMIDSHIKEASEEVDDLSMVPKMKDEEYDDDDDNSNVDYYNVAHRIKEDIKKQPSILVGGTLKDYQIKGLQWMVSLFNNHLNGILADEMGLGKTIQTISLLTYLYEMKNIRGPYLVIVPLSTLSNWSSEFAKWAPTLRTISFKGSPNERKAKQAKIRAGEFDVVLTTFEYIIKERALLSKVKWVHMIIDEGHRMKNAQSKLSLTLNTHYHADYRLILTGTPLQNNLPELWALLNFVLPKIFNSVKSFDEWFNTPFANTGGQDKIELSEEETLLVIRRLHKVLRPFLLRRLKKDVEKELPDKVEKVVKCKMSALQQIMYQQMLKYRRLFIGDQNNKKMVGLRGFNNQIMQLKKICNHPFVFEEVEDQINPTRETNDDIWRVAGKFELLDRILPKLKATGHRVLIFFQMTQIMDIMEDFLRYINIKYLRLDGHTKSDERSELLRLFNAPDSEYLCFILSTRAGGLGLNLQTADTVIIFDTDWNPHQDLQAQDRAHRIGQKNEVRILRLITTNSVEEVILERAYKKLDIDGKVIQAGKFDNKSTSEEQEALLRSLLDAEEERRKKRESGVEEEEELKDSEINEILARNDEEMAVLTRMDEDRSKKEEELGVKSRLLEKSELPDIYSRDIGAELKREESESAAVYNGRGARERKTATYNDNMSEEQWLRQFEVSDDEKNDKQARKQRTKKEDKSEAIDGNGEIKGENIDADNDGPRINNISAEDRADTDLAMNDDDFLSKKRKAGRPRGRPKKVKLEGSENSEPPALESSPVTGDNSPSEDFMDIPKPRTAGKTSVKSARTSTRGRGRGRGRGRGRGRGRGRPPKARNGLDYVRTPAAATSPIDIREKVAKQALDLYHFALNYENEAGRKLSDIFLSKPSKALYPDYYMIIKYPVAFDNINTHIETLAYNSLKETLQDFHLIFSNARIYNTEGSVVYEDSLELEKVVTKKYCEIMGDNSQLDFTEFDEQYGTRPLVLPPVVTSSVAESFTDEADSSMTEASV
The data set “cryo-EM structure” deals with the molecule itself.

A word on the stoichiometry N: it is a count of units in the complex or per binding partner.

B1: Swp82 (natural protein)
chain: MLGEDEGNTVLEKGNNPSVKQGEVGAVFIVPKILIREHERVILKQILQILDQDELVQPPLDKFPYKKLELPKYIDELKTRDATNTSYKMIQLDAYGEKKVGSNGELFGGRHYLFNTFTFTAHMGVLLVLLQDVIKVLYQSNATHDEDEFIVQHDQILVMETSEEQTKFLAKNGVIPEESKGSFKYITARSAFVEFGASVIAGGQRIVDDYWESLAKKQNLSSHQRVFKLSTNLISKISLLRPSFQNNRISNANEISANTNNTCTISTSKFESQYPIVTEQPSAEIREAYIENFAKGEHISAIVPGQSISGTLELSAQFRVPRYHSKNSFQQALQMKAMDIPIGRHEELLAQYESQAPDGSASISLPNHIPSVNPSNKPIKRMLSSILDINVSSSKNKKSEENEMIKPMNKGQHKNNTSLNINGWKFESLPLKSAENSGKQQYYRGLPLYEKNTLLERLKQLTPNEIKELEHLHDAVFVNTGLQNVRKVRTKKWKKYWQYKAGIPIGLKRSQLDEFKNKYLKDVLAQTSVTTNFNEITNTDETITTKRVPNPNFLGNCNIKDFKPPYIYSHVNKVPQNVAGDKTAVKLDTEVKNTNANPVVATDPVAAKPDNLANFSNEVAMNN
In the case of B1, the binding result with Swi3 and in the data set with Snf5 was “binds” in each case.

B2: Snf12 (natural protein)
chain: MSKVMKPSNGKGSRKSSKAATPDTKNFFHAKKKDPVNQDKANNASQITPTVPHSHPSDMVIPDHLAELIPELYSFQQLVDSEKRLDHFIHLRNLHMKRMVAQWERSKLSQEFLYPHLNFPNVKFLRIFISNVSENQPWQMDTNNEADLMALENATWTMRIEGRLLDNVQANDPAREKFSSFIESIVVDFKNKENDNVPSTKFNAAPEENATEGPSDKKLNLNLPLQFSLPNGDNSTTTNTDQNNATMGEETAKKDMSSTTPKLESVKWQYDPNNPVDFDGLDIKRVGSENVECTISILRKSSPEEPFMSYSPQLTAIIGLKSGTSHDAIFSIYKYIHLNELLTNDESAFENLMGNRNNHNSNTSTSKMLDAASSQVSIVKLDTQLITLLPSSLKESSPDTMKLTDLLSLINSTHLLPLQPIEIDYTVRVDKASTYGELVLDIEVPDVNALKFNNTQRESQIGAAELNENARELEQIKPKIALQDKEITSVLSNLHESNKRYRFFKKISEDPVKALNECIASTSNALKVLSGDEGYNEDMVRRANFYKENEAMLRENIEVILSNGRM
B2: the binding result with Swi1 and in the data set with Swi3 was “binds” each time.
Turning to B3, the binding result in the data set with Snf2, with Swi1 and with Snf5 was “binds” in each case. Further, in “cryo-EM structure”, the “stoichiometry N” value turned out to be 2.
